# Where no end group is shown, it is not given here. [ ]: non-standard residue; d: D form. pS = N[C@@H](COP(=O)(O)O)C(=O)O
# B1: phosphorylated wild-type phospholamban (Ser16, by PKA) (natural protein, human, UniProt P26678 1-52, looked up)
# chain: MEKVQYLTRSAIRRA[pS]TIEMPQQARQKLQNLFINFCLILICLLLICIIVMLL
# modifications: cysteine pairing not given here
# B2: wild-type phospholamban (PLB) (natural protein, human, UniProt P26678 1-52, looked up)
# chain: MEKVQYLTRSAIRRASTIEMPQQARQKLQNLFINFCLILICLLLICIIVMLL
# B3: phospholamban gain-of-function mutant Lys27-to-Ala (K27A) (natural protein, human, UniProt P26678 1-52, looked up)
# chain: MEKVQYLTRSAIRRASTIEMPQQARQALQNLFINFCLILICLLLICIIVMLL
# B4: phosphorylated K27A phospholamban (Ser16, by PKA) (natural protein, human, UniProt P26678 1-52, looked up)
# chain: MEKVQYLTRSAIRRA[pS]TIEMPQQARQALQNLFINFCLILICLLLICIIVMLL
# modifications: cysteine pairing not given here
# Tests used:
# [1] = molecular target: SERCA (sarcoplasmic reticulum calcium ATPase); assay: 2D co-crystal frequency, negative-stain EM; details: sites S16
# cryo-EM structure = molecular target: the molecule itself; assay: cryo-EM structure
# SDS-PAGE = molecular target: the molecule itself; assay: SDS-PAGE
Molecule,stoichiometry N (cryo-EM structure),further results
phospholamban (PLB) (from UniProt P26678) PKA-phosphorylated wild-type PLB,–,other: crystals per grid square ([1]; reference: non-phosphorylated wild-type PLB): weaker; reference 3.1 ±0.5 (n = 7)
phospholamban (PLB) (from UniProt P26678) PKA-phosphorylated K27A PLB,–,other: crystals per grid square ([1]; reference: non-phosphorylated K27A PLB): weaker; reference 5 ± 1 (n = 6)
B1,5,–
B2,5,–
B3,5,–
B4,–,stoichiometry N (SDS-PAGE): 5
